Experimental data from publication PMC4967043.

Molecular target: (SIM)m, m = 1
Test: ITC

- Kd: 10 µM
Substance: (SUMO)m, m = 1 (from UniProt P55854 1-92) (natural protein)
